From patent publication US20160108110A1 (Novartis, published 2016) come the findings set out here.

The assay has as its target T1, Human ANGPTL4(26-406)-FLAG-His6-Avi (human, UniProt Q9BY76 24-406, biotin on the C-terminal Avi tag in the biotinylated preparations (immobilised form in SET, ELISA and Octet)).
T1 construct: also called full-length human ANGPTL4; hANGPTL4
T1 sequence: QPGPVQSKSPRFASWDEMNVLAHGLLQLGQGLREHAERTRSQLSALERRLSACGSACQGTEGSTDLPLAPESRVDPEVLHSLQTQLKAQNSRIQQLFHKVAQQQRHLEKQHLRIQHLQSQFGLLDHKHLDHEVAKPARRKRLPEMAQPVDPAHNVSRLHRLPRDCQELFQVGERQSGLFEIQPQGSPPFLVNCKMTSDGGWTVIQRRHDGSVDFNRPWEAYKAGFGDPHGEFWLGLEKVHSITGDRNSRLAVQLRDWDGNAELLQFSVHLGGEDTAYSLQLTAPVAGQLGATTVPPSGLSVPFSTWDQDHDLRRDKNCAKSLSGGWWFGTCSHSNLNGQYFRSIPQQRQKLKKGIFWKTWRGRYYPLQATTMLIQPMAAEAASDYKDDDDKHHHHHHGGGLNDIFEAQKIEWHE
As to the kind of experiment: SET assay. On the procedure: SET assays were performed as follows. In a 96-well polypropylene plate, a constant concentration of ANGPTL4 antibody was mixed with different concentrations of non-biotinylated human, cyno, mouse, or rat full-length ANPGLT4 protein, or human ANGPTL4 N-terminal domain protein (5-fold serial dilution) and incubated at 22° C. for 14 hours with constant shaking (300 rpm). On a pre-blocked 384-well streptavidin-coated Meso Scale Discovery (MSD) plate biotinylated ANGPTL4 (full-length human, cyno, mouse, or rat ANGPTL4, or human ANGPTL4 N-terminal domain) protein (1 nM, 15 μL per well) was immobilized and washed thereafter.
The equilibrium binding reactions (15 μL per well) were applied to the MSD plate with immobilized ANGPTL4 and incubated for 20 min at 22° C. The unbound material was removed by washing the plate 3 times with wash buffer, and the captured antibody was detected by adding Sulfo-tagged goat anti-human IgG (Meso Scale Discovery). After washing MSD read buffer T was added and the plate was developed using a Sector Imager 6000 (Meso Scale Discovery). The data were transferred to Microsoft Excel for analysis and plotted using GraphPad Prism v6. The KD values were determined by fitting the data to the following equation: […]
where Bₘₐₓ is the signal when no ANGPTL4 protein is present in solution, CAb is the constant concentration of ANGPTL4 antibody in solution, CAg is the concentration of ANGPTL4 in solution, and KD is the equilibrium dissociation constant.

B1: MOR023416 (antibody, V domains shown)
VH: QVQLLESGGGLVQPGGSLRLSCAASGFTFSDYALHWVRQAPGKGLEWVSRITYTGLYTYYADSVKGRFTISRDNSKNTLYLQMNSLRAEDTAVYYCAREHYYSSPMGGVAVDNWGQGTLVTVSS
VL: DIVLTQPPSVSGAPGQRVTISCSGSSSNIGYNTVSWYQQLPGTAPKLLIYSNNIRPSGVPDRFSGSKSGTSASLAITGLQAEDEADYYCSSWDFLIKSLVFGGGTKLTVL
notes: as MOR023415: built on parent Fab MOR021798, limits derived
In turn, B1 gave a Kd of 1 pM.

B2: MOR023415 (antibody, V domains shown)
VH: QVQLLESGGGLVQPGGSLRLSCAASGFTFSDYALHWVRQAPGKGLEWVSRITYTGFYTFYADSVKGRFTISRDNSKNTLYLQMNSLRAEDTAVYYCAREHYYSSPMGGVAVDNWGQGTLVTVSS
VL: DIVLTQPPSVSGAPGQRVTISCSGSSSNIGYNTVSWYQQLPGTAPKLLIYSNNIRPSGVPDRFSGSKSGTSASLAITGLQAEDEADYYCSSWDFLIKSLVFGGGTKLTVL
notes: built on parent Fab MOR021798 with residues 48-66 of the VH replaced
For B2, the affinity, expressed as Kd, was 1 pM.

B3: MOR023417 (antibody, V domains shown)
VH: QVQLLESGGGLVQPGGSLRLSCAASGFTFSDYALHWVRQAPGKGLEWVSRITYTGMWTEYADSVKGRFTISRDNSKNTLYLQMNSLRAEDTAVYYCAREHYYSSPMGGVAVDNWGQGTLVTVSS
VL: DIVLTQPPSVSGAPGQRVTISCSGSSSNIGYNTVSWYQQLPGTAPKLLIYSNNIRPSGVPDRFSGSKSGTSASLAITGLQAEDEADYYCSSWDFLIKSLVFGGGTKLTVL
notes: as for B1
Consider B3, for which the affinity, expressed as Kd, was 6 pM.

B4: MOR023418 (antibody, V domains shown)
VH: QVQLLESGGGLVQPGGSLRLSCAASGFTFSDYALHWVRQAPGKGLEWVSRITYTGQYKYYADSVKGRFTISRDNSKNTLYLQMNSLRAEDTAVYYCAREHYYSSPMGGVAVDNWGQGTLVTVSS
VL: DIVLTQPPSVSGAPGQRVTISCSGSSSNIGYNTVSWYQQLPGTAPKLLIYSNNIRPSGVPDRFSGSKSGTSASLAITGLQAEDEADYYCSSWDFLIKSLVFGGGTKLTVL
notes: as for B1
B4 registered a Kd of 19 pM.

B5: MOR023439 (antibody, human IgG1, kappa, V domains shown)
VH: EVQLLESGGGLVQPGGSLRLSCAASGFTFSSYYLHWVRQAPGKGLEWVSGISSGGSYINYADSVKGRFTISRDNSKNTLYLQMNSLRAEDTAVYYCARERSYAHDHWGQGTLVTVSS
VL: DIQMTQSPSSLSASVGDRVTITCRASQDIYIDLNWYQQKPGKAPKLLIYAASKLQSGVPSRFSGSGSGTDFTLTISSLQPEDFATYYCQQGYFLPQTFGQGTKVEIKR
notes: built on the parent antibody for IgG conversion MOR022768 with residues 48-66 of the heavy chain replaced; Parent Fab MOR021823
As for B5, the Kd is less than 1 pM.

B6: MOR023410 (antibody, human IgG1, kappa, V domains shown)
VH: EVQLLESGGGLVQPGGSLRLSCAASGFTFSSYWMHWVRQAPGKGLEWVSGISYSGSSTNYADSVKGRFTISRDNSKNTLYLQMNSLRAEDTAVYYCARDSYIYDLHWGFDNWGQGTLVTVSS
VL: DIQMTQSPSSLSASVGDRVTITCRASQDISSYLNWYQQKPGKAPKLLIYAASRLQSGVPSRFSGSGSGTDFTLTISSLQPEDFATYYCQQAYFAPYTFGQGTKVEIKR
notes: as MOR023407: built on MOR022771, limits derived
For the molecule B6, the dissociation constant (Kd) is less than 1 pM.

B7: MOR023402 (antibody, human IgG1, kappa, V domains shown)
VH: EVQLLESGGGLVQPGGSLRLSCAASGFTFSSYWMHWVRQAPGKGLEWVSVIGYSGTHTNYADSVKGRFTISRDNSKNTLYLQMNSLRAEDTAVYYCARDSYIYDLHWGFDNWGQGTLVTVSS
VL: DIQMTQSPSSLSASVGDRVTITCRASQDISSYLNWYQQKPGKAPKLLIYAASRLQSGVPSRFSGSGSGTDFTLTISSLQPEDFATYYCQQSYTHPYTFGQGTKVEIKR
notes: as MOR023400: built on MOR022771, limits derived
As for B7, the Kd came out at 1 pM.

B8: MOR023448 (antibody, human IgG1, kappa, V domains shown)
VH: EVQLLESGGGLVQPGGSLRLSCAASGFTFSSYYLHWVRQAPGKGLEWVSSISSISGFTEYADSVKGRFTISRDNSKNTLYLQMNSLRAEDTAVYYCARERSYAHDHWGQGTLVTVSS
VL: DIQMTQSPSSLSASVGDRVTITCRASQDIYIDLNWYQQKPGKAPKLLIYAASKLQSGVPSRFSGSGSGTDFTLTISSLQPEDFATYYCQQGYFLPQTFGQGTKVEIKR
notes: as MOR023439: built on MOR022768, limits derived
For the molecule B8, the Kd is less than 1 pM.

B9: MOR023413 (antibody, human IgG1, kappa, V domains shown)
VH: EVQLLESGGGLVQPGGSLRLSCAASGFTFSSYWMHWVRQAPGKGLEWVSGISYSGSSTNYADSVKGRFTISRDNSKNTLYLQMNSLRAEDTAVYYCARDSYIYDLHWGFDNWGQGTLVTVSS
VL: DIQMTQSPSSLSASVGDRVTITCRASQDISSYLNWYQQKPGKAPKLLIYAASRLQSGVPSRFSGSGSGTDFTLTISSLQPEDFATYYCQQYYYPPYTFGQGTKVEIKR
notes: as for B6
Molecule B9 showed a Kd of less than 1 pM.

B10: MOR023407 (antibody, human IgG1, kappa, V domains shown)
VH: EVQLLESGGGLVQPGGSLRLSCAASGFTFSSYWMHWVRQAPGKGLEWVSGISYSGSSTNYADSVKGRFTISRDNSKNTLYLQMNSLRAEDTAVYYCARDSYIYDLHWGFDNWGQGTLVTVSS
VL: DIQMTQSPSSLSASVGDRVTITCRASQDISSYLNWYQQKPGKAPKLLIYAASRLQSGVPSRFSGSGSGTDFTLTISSLQPEDFATYYCFQMYYHPYTFGQGTKVEIKR
notes: built on the parent antibody for IgG conversion MOR022771 with residues 89-96 of the light chain replaced; Parent Fab MOR021830 has another HCDR2 (D53) and Q1 in the VH
B10 registered a dissociation constant Kd of 1 pM.

B11: MOR023406 (antibody, human IgG1, kappa, V domains shown)
VH: EVQLLESGGGLVQPGGSLRLSCAASGFTFSSYWMHWVRQAPGKGLEWVSYIPYMGPGKFYADSVKGRFTISRDNSKNTLYLQMNSLRAEDTAVYYCARDSYIYDLHWGFDNWGQGTLVTVSS
VL: DIQMTQSPSSLSASVGDRVTITCRASQDISSYLNWYQQKPGKAPKLLIYAASRLQSGVPSRFSGSGSGTDFTLTISSLQPEDFATYYCQQSYTHPYTFGQGTKVEIKR
notes: as for B7
In the case of B11, binding was characterised by a dissociation constant (Kd) of 3 pM.

B12: MOR023447 (antibody, human IgG1, kappa, V domains shown)
VH: EVQLLESGGGLVQPGGSLRLSCAASGFTFSSYYLHWVRQAPGKGLEWVSSISSAGVYKDYADSVKGRFTISRDNSKNTLYLQMNSLRAEDTAVYYCARERSYAHDHWGQGTLVTVSS
VL: DIQMTQSPSSLSASVGDRVTITCRASQDIYIDLNWYQQKPGKAPKLLIYAASKLQSGVPSRFSGSGSGTDFTLTISSLQPEDFATYYCQQGYFLPQTFGQGTKVEIKR
notes: as for B8
The molecule B12 returned a dissociation constant (Kd) of less than 1 pM.

B13: MOR023400 (antibody, human IgG1, kappa, V domains shown)
VH: EVQLLESGGGLVQPGGSLRLSCAASGFTFSSYWMHWVRQAPGKGLEWVSGIPYQGPAINYADSVKGRFTISRDNSKNTLYLQMNSLRAEDTAVYYCARDSYIYDLHWGFDNWGQGTLVTVSS
VL: DIQMTQSPSSLSASVGDRVTITCRASQDISSYLNWYQQKPGKAPKLLIYAASRLQSGVPSRFSGSGSGTDFTLTISSLQPEDFATYYCQQSYTHPYTFGQGTKVEIKR
notes: built on the parent antibody for IgG conversion MOR022771 with residues 48-66 of the heavy chain replaced; Parent Fab MOR021830
Take B13: the dissociation constant Kd worked out at 1 pM.

B14: MOR023441 (antibody, human IgG1, kappa, V domains shown)
VH: EVQLLESGGGLVQPGGSLRLSCAASGFTFSSYYLHWVRQAPGKGLEWVSSIAGMGNYIDYADSVKGRFTISRDNSKNTLYLQMNSLRAEDTAVYYCARERSYAHDHWGQGTLVTVSS
VL: DIQMTQSPSSLSASVGDRVTITCRASQDIYIDLNWYQQKPGKAPKLLIYAASKLQSGVPSRFSGSGSGTDFTLTISSLQPEDFATYYCQQGYFLPQTFGQGTKVEIKR
notes: as for B8
On to B14, for which the Kd is less than 1 pM.

B15: MOR023446 (antibody, human IgG1, kappa, V domains shown)
VH: EVQLLESGGGLVQPGGSLRLSCAASGFTFSSYYLHWVRQAPGKGLEWVSSISSAGHYIDYADSVKGRFTISRDNSKNTLYLQMNSLRAEDTAVYYCARERSYAHDHWGQGTLVTVSS
VL: DIQMTQSPSSLSASVGDRVTITCRASQDIYIDLNWYQQKPGKAPKLLIYAASKLQSGVPSRFSGSGSGTDFTLTISSLQPEDFATYYCQQGYFLPQTFGQGTKVEIKR
notes: as for B8
B15: the Kd is less than 1 pM.

B16: MOR023412 (antibody, human IgG1, kappa, V domains shown)
VH: EVQLLESGGGLVQPGGSLRLSCAASGFTFSSYWMHWVRQAPGKGLEWVSGISYSGSSTNYADSVKGRFTISRDNSKNTLYLQMNSLRAEDTAVYYCARDSYIYDLHWGFDNWGQGTLVTVSS
VL: DIQMTQSPSSLSASVGDRVTITCRASQDISSYLNWYQQKPGKAPKLLIYAASRLQSGVPSRFSGSGSGTDFTLTISSLQPEDFATYYCQQAYYPPYTFGQGTKVEIKR
notes: as for B6
In turn, B16 gave an equilibrium dissociation constant (Kd) of 1 pM.

B17: MOR023411 (antibody, human IgG1, kappa, V domains shown)
VH: EVQLLESGGGLVQPGGSLRLSCAASGFTFSSYWMHWVRQAPGKGLEWVSGISYSGSSTNYADSVKGRFTISRDNSKNTLYLQMNSLRAEDTAVYYCARDSYIYDLHWGFDNWGQGTLVTVSS
VL: DIQMTQSPSSLSASVGDRVTITCRASQDISSYLNWYQQKPGKAPKLLIYAASRLQSGVPSRFSGSGSGTDFTLTISSLQPEDFATYYCQQAYYHPYTFGQGTKVEIKR
notes: as for B6
Molecule B17 came in with a Kd of 2 pM.

B18: MOR023443 (antibody, human IgG1, kappa, V domains shown)
VH: EVQLLESGGGLVQPGGSLRLSCAASGFTFSSYYLHWVRQAPGKGLEWVSSIASSSPATHYADSVKGRFTISRDNSKNTLYLQMNSLRAEDTAVYYCARERSYAHDHWGQGTLVTVSS
VL: DIQMTQSPSSLSASVGDRVTITCRASQDIYIDLNWYQQKPGKAPKLLIYAASKLQSGVPSRFSGSGSGTDFTLTISSLQPEDFATYYCQQGYFLPQTFGQGTKVEIKR
notes: as for B8
Regarding B18, the equilibrium dissociation constant (Kd) was less than 1 pM.

Broadly, the Kd is the equilibrium constant for the complex coming apart.
